Experimental data from patent US20200347143A1 (GLENMARK PHARMACEUTICALS S A, published 2020).

T1: human OX40 on cells (human, UniProt P43489 29-277)
T1 sequence (looked up): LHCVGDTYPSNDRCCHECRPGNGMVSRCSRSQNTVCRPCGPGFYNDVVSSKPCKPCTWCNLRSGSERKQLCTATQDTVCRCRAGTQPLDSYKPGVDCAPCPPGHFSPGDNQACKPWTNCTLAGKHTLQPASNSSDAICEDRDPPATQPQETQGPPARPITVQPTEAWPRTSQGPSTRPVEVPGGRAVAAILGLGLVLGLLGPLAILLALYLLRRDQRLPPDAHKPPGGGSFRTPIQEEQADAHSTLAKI

T2: recombinant human OX40-his protein (human, UniProt P43489 29-214)
T2 construct: Secreted via the native signal peptide, which lies within residues 1-214; also called Human OX40R-His; histidine tagged human OX40 receptor extracellular domain
T2 sequence: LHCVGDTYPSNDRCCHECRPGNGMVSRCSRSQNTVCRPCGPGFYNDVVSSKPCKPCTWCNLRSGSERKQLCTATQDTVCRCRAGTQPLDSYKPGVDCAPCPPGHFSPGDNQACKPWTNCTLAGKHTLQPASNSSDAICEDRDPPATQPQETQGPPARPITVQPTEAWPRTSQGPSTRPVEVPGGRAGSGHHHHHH

B1: OX40-CRD-Avi-his (receptor)
chain: LHCVGDTYPSNDRCCHECRPGNGMVSRCSRSQNTVCRPCGPGFYNDVVSSKPCKPCTWCNLRSGSERKQLCTATQDTVCRCRAGTQPLDSYKPGVDCAPCPPGHFSPGDNQACKPWTNCTLAGKHTLQPASNSSDAICEDRDGLNDIFEAQKIEWHEHHHHHH
notes: limits of the construct not described
B2: pab1949 IgG1 (antibody, V domains shown)
VH: EVQLVESGGGLVQPGGSLKLSCAASGFTFSGSAMHWVRQASGKCLEWVGRIRSKANSYATAYAASVKGRFTISRDDSKNTAYLQMNSLKTEDTAVYYCTSGIYDSSGYDYWGQGTLVTVSS
VL: not shown
B3: Fc-7H11 scFv/2H6 Fab (other)
heavy 1: HTCPPCPAPEAAGGPSVFLFPPKPKDTLMISRTPEVTCVVVDVSHEDPEVQFKWYVDGVEVHNAKTKPREEQYNSTFRVVSVLTVLHQDWLNGKEYKCKVSNKALPAPIEKTISKTKGQPREPAVYTLPPSREEMTKNQVKLVCLVTGFYPSDIAVEWESSGQPENNYYTTPPMLDSDGSFSLVSWLNVDKSRWQQGNIFSCSVMHEALHNRFTQKSLSLSPGGGGGTQVQLVQSGAEVKKPGASVKVSCKASGYTFTRYYMHWVRQAPGQCLEWMGWIYPGEGSTKYAQKFQGRVTMTRDTSISTAYMELSRLRSDDTAVYYCAREYGNYDYWGQGTLVTVSSGGGGSGGGGSGGGGSDIVMTQSPDSLAVSLGERATINCKSSQSLLNSGNQKNYLAWYQQKPGQPPKLLIYGASTRESGVPDRFSGSGSGTDFTLTISSLQAEDVAVYYCQNDHSYPYTFGCGTKLEIL
heavy 2: HTCPPCPAPEAAGGPSVFLFPPKPKDTLMISRTPEVTCVVVDVSHEDPEVKFNWYVDGVEVHNAKTKPREEQYNSTYRVVSVLTVLHQDWLNGKEYKCKVSNKALPAPIEKTISKAKGQPREPEVATFPPSRDELTKNQVTLVCLVTGFYPSDIAVEWESNGQPENNYKTDPPLLESDGSFALSSRLRVDKSRWQQGNVFSCSVMHEALHNHYTQKSLSLSPGGGGGTEVQLVESGGGLVQPGGSLRLSCAVSGYSITSDYAWNWIRQAPGKGLEWMGYISYSGSTAYNPSLKSRITISRDTSKNTFYLQMNSLRAEDTAVYYCARGPYNYLAYWGQGTLVTVSSASTKGPSVFPLAPSSKSTSGGTAALGCLVKDYFPEPVTVSWNSGALTSGVHTFPAVLQSSGLYSLSSVVTVPSSSLGTQTYICNVNHKPSNTKVDKKVEPKSC
light: DIQLTQSPSSLSASVGDRVTITCRASESVDNYGISFMNWFQQKPGKAPKLLIYAASNQKSGVPSRFSGSGSGTDFTLTISSLQPEDFATYFCQQSKEVPLTFGQGTKVEIKRTVAAPSVFIFPPSDEQLKSGTASVVCLLNNFYPREAKVQWKVDNALQSGNSQESVTEQDSKDSTYSLSSTLTLSKADYEKHKVYACEVTHQGLSSPVTKSFNRGEC
notes: N-terminal Fabs removed by digestion; also called Fc-2H6 Fab/7H11 scFv; purified digestion product of Tetra-20
B4: mouse 2H6 antibody (hybridoma 2H6) (antibody, V domains shown)
VH: DVQLQESGPGLVKPSQSLSLTCTVTGYSITSDYAWNWIRQFPGNKLEWMGYISYSGSTAYNPSLKSRISITRDTSKNQFFLQLNSVTTEDTATYYCARGPYNYLAYWGQGTLVTVSS
VL: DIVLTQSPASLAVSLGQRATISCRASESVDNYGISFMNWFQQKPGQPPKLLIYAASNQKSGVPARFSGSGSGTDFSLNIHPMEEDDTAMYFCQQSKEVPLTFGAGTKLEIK
notes: also called mouse antibody 2H6

What was measured:
[1] = target: pab1949 scFv fused in C-terminus (Fc fragment after digestion); assay: SPR, Fc-scFv fragment captured by anti-human IgG Fc, OX40-CRD-Avi-his injected
Method: The antibody/protease mixture was incubated over night at 37° C. […] After each binding event, the surface was regenerated with 10 μl of MgCl2 (3M) buffer. Experimental data were processed using a 1:1 Langmuir model with local Rmax. The dissociation time was about 7 min.
(§1) Dilution series of hsOX40_CRD_Avi_His (SEQ ID NO: 159) were then injected.

human OX40 on cells = target: T1, human OX40 on cells; assay: cell-based or functional assay
OX40-CRD-Avi-his = target: B1; assay: SPR, antibody captured by anti-human IgG Fc, hsOX40_CRD_Avi_His injected
Method: as §1

rat OX40-Fc = rat OX40-Fc (rat); assay: ELISA on coated rat OX40-Fc
Sequence of rat OX40-Fc (rat) (chain, as listed by the source limits assumed): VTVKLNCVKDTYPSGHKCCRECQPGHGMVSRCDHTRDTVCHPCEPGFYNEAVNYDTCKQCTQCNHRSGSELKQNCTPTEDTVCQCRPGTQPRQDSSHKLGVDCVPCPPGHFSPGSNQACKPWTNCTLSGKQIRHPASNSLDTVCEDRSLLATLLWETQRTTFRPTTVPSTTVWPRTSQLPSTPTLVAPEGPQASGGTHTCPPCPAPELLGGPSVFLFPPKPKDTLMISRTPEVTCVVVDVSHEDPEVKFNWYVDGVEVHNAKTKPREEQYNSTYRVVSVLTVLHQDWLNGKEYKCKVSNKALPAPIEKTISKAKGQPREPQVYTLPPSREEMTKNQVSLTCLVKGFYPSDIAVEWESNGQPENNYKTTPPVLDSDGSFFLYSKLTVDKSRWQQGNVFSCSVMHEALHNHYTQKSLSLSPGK

chiOX40R HHRH-Fc = target: T3, chiOX40R HHRH-Fc (human/rat chimera; human); assay: SPR, chimera immobilised (3000 RU), fragment injected at 200 nM
T3 construct: also called chiOX40R-Fc HHRH; chiOX40R OX40 HHRH-Fc
T3 sequence (chain, as listed by the source): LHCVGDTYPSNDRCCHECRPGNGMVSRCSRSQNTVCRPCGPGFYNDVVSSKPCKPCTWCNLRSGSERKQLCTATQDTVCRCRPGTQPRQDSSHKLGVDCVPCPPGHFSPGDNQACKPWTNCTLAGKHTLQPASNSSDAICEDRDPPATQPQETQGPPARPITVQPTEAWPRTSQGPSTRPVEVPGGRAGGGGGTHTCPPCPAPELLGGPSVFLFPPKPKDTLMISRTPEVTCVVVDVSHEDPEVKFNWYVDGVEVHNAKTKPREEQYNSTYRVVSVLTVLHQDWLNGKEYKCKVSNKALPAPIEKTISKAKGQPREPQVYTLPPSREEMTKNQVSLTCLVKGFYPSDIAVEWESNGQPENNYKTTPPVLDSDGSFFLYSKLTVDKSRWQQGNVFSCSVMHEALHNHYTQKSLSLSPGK
Method: A second injection was then performed using HBS-EP buffer for 3 min followed by 5 min of dissociation. Regeneration between the injections was done using glycine pH1.5 buffer for 1 min (FIG. 21 and table 23).

[2] = target: T2, recombinant human OX40-his protein; assay: direct ELISA on coated OX40-his
Method: Plates were incubated overnight at 4° C. and were then blocked with PBS 2% BSA (Bovine Serum Albumine, PAA Laboratories, Pasching, Austria) at room temperature (RT) for one hour. […] Absorbance was then read at 450 nm by a microplate reader (Biotek, USA; distributor: WITTEC AG, Littau, Switzerland).

Binder: B1
Kd [1]: 460 nM

Binder: B2
% donor responder (>2), SEB assay, IL-2 release (human OX40 on cells): 80%
Mean, normalized IL-2 release, SEB assay (human OX40 on cells): 4.74
Kd (OX40-CRD-Avi-his): 304 nM
binding result (rat OX40-Fc): no binding (tested: 10 µg/ml)

Binder: B3
response units (chiOX40R HHRH-Fc): 100 RU

Binder: B4
binding result [2]: binds
